Bounds are passed on as bounds.

The results in this text go back to EP0842426B1.

Assay in all cases: cell-based or functional assay
In experiment [1] the target is ecotropic MLV receptor (mouse) (UniProt Q09143).
Experiment [2] has as its target amphotropic receptor on human B and T cell lines (K422 and Jurkat) (human) (UniProt Q08357).
The target in experiment [3] is human epidermal growth factor receptor (human) (UniProt P00533).
Experiment [4] deals with EGF receptor on NIH3T3 cells and NIH3T3 clones transfected with EGF receptor expression constructs.
In experiment [5] the target is amphotropic MLV receptor on NIH3T3 mouse fibroblasts (mouse) (UniProt Q80UP8).
Sequence of amphotropic MLV receptor on NIH3T3 mouse fibroblasts (mouse) (Q80UP8 whole entry): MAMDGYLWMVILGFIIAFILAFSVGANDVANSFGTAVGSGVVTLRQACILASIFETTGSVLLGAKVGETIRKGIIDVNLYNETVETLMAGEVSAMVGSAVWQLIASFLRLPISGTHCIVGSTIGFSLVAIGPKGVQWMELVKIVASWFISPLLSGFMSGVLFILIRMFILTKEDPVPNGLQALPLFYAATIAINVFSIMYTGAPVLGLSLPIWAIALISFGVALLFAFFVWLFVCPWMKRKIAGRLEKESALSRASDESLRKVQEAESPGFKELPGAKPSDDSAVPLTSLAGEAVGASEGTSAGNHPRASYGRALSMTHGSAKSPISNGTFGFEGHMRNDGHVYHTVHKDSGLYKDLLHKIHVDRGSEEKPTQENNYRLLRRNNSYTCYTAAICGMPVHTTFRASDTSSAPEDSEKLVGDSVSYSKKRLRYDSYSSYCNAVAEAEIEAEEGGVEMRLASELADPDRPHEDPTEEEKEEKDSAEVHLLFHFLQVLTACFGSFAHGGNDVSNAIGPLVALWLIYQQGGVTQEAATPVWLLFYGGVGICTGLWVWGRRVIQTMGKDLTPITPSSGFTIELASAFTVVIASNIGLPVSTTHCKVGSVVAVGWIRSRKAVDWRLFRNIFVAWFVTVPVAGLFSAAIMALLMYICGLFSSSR

Sequence of ecotropic MLV receptor (mouse) (Q09143 whole entry): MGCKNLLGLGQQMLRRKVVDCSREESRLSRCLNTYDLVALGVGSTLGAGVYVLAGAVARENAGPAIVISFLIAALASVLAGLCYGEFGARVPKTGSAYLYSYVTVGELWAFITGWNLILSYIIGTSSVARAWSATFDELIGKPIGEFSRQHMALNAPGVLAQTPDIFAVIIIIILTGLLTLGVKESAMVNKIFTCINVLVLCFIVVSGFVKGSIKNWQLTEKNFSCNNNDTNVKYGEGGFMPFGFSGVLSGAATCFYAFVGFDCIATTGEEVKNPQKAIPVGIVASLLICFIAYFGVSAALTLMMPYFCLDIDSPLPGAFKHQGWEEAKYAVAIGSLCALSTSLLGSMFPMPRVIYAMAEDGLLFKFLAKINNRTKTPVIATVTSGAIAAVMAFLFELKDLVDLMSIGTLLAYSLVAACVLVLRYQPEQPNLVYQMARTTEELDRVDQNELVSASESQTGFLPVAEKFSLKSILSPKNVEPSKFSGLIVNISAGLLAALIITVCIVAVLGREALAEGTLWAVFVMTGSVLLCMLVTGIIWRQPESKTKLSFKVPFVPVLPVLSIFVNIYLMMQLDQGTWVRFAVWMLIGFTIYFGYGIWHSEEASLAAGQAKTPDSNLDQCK
Sequence of Moloney MLV ecotropic envelope glycoprotein (control envelope MO) (P03385 34-665 limits assumed): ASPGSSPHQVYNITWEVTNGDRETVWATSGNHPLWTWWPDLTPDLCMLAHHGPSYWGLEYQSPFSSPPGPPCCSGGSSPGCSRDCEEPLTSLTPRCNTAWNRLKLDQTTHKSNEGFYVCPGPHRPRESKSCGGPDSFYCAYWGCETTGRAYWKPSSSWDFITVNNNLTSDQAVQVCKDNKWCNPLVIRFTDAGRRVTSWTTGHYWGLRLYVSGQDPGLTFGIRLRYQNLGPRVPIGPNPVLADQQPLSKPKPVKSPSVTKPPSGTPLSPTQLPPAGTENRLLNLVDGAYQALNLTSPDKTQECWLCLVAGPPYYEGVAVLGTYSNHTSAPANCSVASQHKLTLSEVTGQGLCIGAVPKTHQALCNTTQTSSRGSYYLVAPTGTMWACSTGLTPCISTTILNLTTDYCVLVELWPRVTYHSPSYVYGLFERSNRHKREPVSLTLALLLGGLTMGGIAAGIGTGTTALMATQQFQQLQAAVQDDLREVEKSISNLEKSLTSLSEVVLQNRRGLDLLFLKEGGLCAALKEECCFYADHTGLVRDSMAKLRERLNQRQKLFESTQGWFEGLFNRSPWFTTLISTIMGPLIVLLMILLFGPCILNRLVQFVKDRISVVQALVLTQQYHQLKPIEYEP
Sequence of amphotropic receptor on human B and T cell lines (K422 and Jurkat) (human) (Q08357 whole entry): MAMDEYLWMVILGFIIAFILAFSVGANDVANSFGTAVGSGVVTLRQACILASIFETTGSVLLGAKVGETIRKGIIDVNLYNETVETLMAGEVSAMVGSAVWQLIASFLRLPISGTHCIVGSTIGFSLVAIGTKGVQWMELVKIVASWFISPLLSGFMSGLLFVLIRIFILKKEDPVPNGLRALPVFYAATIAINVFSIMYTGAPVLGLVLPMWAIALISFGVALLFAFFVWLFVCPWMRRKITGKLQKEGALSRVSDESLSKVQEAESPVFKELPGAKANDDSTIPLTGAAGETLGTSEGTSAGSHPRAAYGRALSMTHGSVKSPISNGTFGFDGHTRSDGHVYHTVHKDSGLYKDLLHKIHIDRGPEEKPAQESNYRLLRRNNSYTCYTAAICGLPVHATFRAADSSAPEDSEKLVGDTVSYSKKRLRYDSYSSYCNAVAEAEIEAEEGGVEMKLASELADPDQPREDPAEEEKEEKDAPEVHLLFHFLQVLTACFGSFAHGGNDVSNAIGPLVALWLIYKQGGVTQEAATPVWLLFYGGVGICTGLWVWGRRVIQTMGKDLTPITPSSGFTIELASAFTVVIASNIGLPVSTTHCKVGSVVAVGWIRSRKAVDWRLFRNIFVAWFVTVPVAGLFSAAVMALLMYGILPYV

In experiment [1], “Moloney MLV ecotropic envelope glycoprotein (control envelope MO) (from UniProt P03385 34-665)” yielded a titre on 3T3 (NIH3T3), lacZ-EFU/ml of 1e+07 lacZ-EFU/ml; a titre on 3T3/A (GP+EAM12, expressing amphotropic envelope), lacZ-EFU/ml of 1e+07 lacZ-EFU/ml; a titre on 3T3/E (psi2, expressing MoMLV envelope), lacZ-EFU/ml below 1 lacZ-EFU/ml; a titre on EJ.A1 cells, lacZ-EFU/ml of 1e+06 lacZ-EFU/ml.
For “chimaeric EGF-4070A (EA) envelope glycoprotein (human EGF fused to the amphotropic 4070A MLV envelope at position +5) (from UniProt P03385 34-39; P01133 23-1207)”, in experiment [2], the titre on Jurkat cells (devoid of EGF.R), lacZ-EFU/ml came out at 1000 lacZ-EFU/ml and the titre on K422 cells (devoid of EGF.R), lacZ-EFU/ml is 10000 lacZ-EFU/ml. In experiment [3], the inhibition of viral infection by EGF receptor expression on NR6 cells worked out at 100 fold; the titre on NR6-wt hEGF.R cells, + rEGF (pre-incubated with recombinant EGF), lacZ-EFU/ml came out at 500000 lacZ-EFU/ml; the titre on NR6-wt hEGF.R cells, - rEGF, lacZ-EFU/ml was 3000 lacZ-EFU/ml; the titre reduction on EGF receptor-positive human cells compared to control viruses with unmodified 4070A envelopes is below 1e+07 fold.
For the substance “chimaeric EMO envelope glycoprotein (human EGF inserted in the Moloney MLV envelope SU glycoprotein at amino acid +6) (from UniProt P03385 34-39; P01133 23-1207; P03385 40-469)”, in experiment [1], the titre on 3T3 (NIH3T3), lacZ-EFU/ml came to 100000 lacZ-EFU/ml; the titre on 3T3/A (GP+EAM12, expressing amphotropic envelope), lacZ-EFU/ml turned out to be 100000 lacZ-EFU/ml; the titre on 3T3/E (psi2, expressing MoMLV envelope), lacZ-EFU/ml was below 1 lacZ-EFU/ml. Further, in experiment [3], the titre on A431 cells with chloroquine, lacZ EFU/ml was 225 lacZ EFU/ml; the titre on NR6-wt hEGF.R cells, + rEGF (pre-incubated with recombinant EGF), lacZ-EFU/ml is 100000 lacZ-EFU/ml; the titre on NR6-wt hEGF.R cells, - rEGF, lacZ-EFU/ml was found to be 1000 lacZ-EFU/ml; the titre on TE671 cells with chloroquine, lacZ EFU/ml was 46 lacZ EFU/ml. In experiment [4], this substance returned a reduction of virus titre by EGF.R expression on mouse fibroblasts below 1000 fold; a titre on NIH3T3 cells with EGFR No. 10,000, lacZ-EFU/ml of 100000 lacZ-EFU/ml; a titre on NIH3T3 cells with EGFR No. 80,000, lacZ-EFU/ml of 10000 lacZ-EFU/ml; a titre on NIH3T3 cells with EGFR No. 400,000, lacZ-EFU/ml of 1000 lacZ-EFU/ml.
For “amphotropic 4070A MLV envelope glycoprotein (control envelope A)”, in experiment [5], the titre on 3T3 (NIH3T3), lacZ-EFU/ml (row shifted by one column) was 1e+07 lacZ-EFU/ml; the titre on 3T3/A (GP+EAM12, expressing amphotropic envelope), lacZ-EFU/ml (row shifted by one column) was 100 lacZ-EFU/ml; the titre on 3T3/E (psi2, expressing MoMLV envelope), lacZ-EFU/ml (row shifted by one column) turned out to be 1e+07 lacZ-EFU/ml.
